B1: SQIMSLWGL (peptide)
peptide: SQIMSLWGL
notes: NAB:STAT6 (variant 1 of Chmielecki et al.)

What follows are binders tested against HLA-B08:01 (human) (assay: pMHC-I dissociation half-life, 125I-b2m).
Protocol: Briefly, synthetic genes encoding biotinylated MHC-I heavy and light chains are expressed in E. coli and purified from inclusion bodies using standard methods. The light chain (β2m) is radio-labeled with iodine (¹²⁵I), and combined with the purified MHC-I heavy chain and peptide of interest at 18° C. to initiate pMHC-I complex formation. These reactions are carried out in streptavidin coated microplates to bind th biotinylated MHC-I heavy chains to the surface and allow measurement of radiolabeled light chain to monitor complex formation. Dissociation is initiated by addition of higher concentations of unlabled light-chain and incubation at 37° C. Stability is defined as the length of time in hours it takes for half of the complexes to dissociate, as measured by scintillation counts

Stability (T1/2 (h)) | Binder
0 h | LSLMPAHWSI (JAK1(-1))
0 h | FELLSTPPL (MYC, P57S)
0 h | B1
0 h | YVMAYVMAGV (HER2, G776insYVMA)
0.5 h | SLGNHLCPL (MLL2, CRLS)
0 h | FLQEQYHEA (GATA3 YHEA)
0 h | FQNGKMALSA (FRG1B, L52S)
1.2 h | YVMAYVMAG (HER2, G776insYVMA)
0 h | FLLALWECSL (MSH3(-1))
0 h | YLGNHMNIA (KIT, V654A)
0.4 h | YMFLKAESKI (GATA3 CSNH)
0 h | SLMPAHWSI (JAK1(-1))

What follows are binders tested against HLA-B08:01 (human) (assay: competition with 125I probe peptide on purified HLA).
Protocol: Immunol. 31:813, 1994; Sidney et al., in Current Protocols in Immunology, Margulies, Ed., John Wiley & Sons, New York, Section 18.3, 1998).
(§1) Following incubation, MHC-peptide complexes are separated from free peptide by gel filtration on 7.8 mm×15 cm TSK200 columns (TosoHaas 16215, Montgomeryville, PA). Because the large size of the radiolabeled peptide used for the DRB1*1501 (DR2w2(31) assay makes separation of bound from unbound peaks more difficult under these conditions, all DRB1*1501 (DR2w2(31) assays were performed using a 7.8 mm×30 cm TSK2000 column eluted at 0.6 mLs/min. The eluate from the TSK columns is passed through a Beckman 170 radioisotope detector, and radioactivity is plotted and integrated using a Hewlett-Packard 3396A integrator, and the fraction of peptide bound is determined.
(§2) Since under these conditions [label]<[HLA] and IC₅₀≥[HLA], the measured IC₅₀ values are reasonable approximations of the true KD values. […] For database purposes, and inter-experiment comparisons, relative binding values are compiled. These values can subsequently be converted back into IC₅₀ nM values by dividing the IC₅₀ nM of the positive controls for inhibition by the relative binding of the peptide of interest.

IC50 | Binder
3180 nM | FELLSTPPL (MYC, P57S)
872 nM | YLGNHMNIA (KIT, V654A)

The binders below were run against HLA-B08:01 (human) (assay: competition with 125I probe peptide for purified HLA class I).
Protocol: as §1, §2

IC50 | Binder
0.6 nM | LKKLRSPL (also called SMAP1(-1))

— patent US20230414735A1 (BIONTECH US, published 2023)
